# US20150344540A1, “NOVEL GLP-1 RECEPTOR AGONISTS WITH CHOLESTEROL EFFLUX ACTIVITY” (NOVO NORDISK A/S, priority 2012, published 2015)
# Where no end group is shown, it is not given here. [ ]: non-standard residue; d: D form. Aib = CC(C)(N)C(=O)O
# B1: [Aib8,Glu23,Val25,Arg26,Glu34,Arg35,Val36,Arg37]-GLP-1-(7-37)-peptidyl-Glu-Phe-Leu-Lys amide (peptide)
# peptide: H[Aib]EGTFTSDVSSYLEGEAVREFIAWLVERVREFLK-NH2
# modifications: N-terminus assumed
# SMILES: CC[C@H](C)[C@H](NC(=O)[C@H](Cc1ccccc1)NC(=O)[C@H](CCC(=O)O)NC(=O)[C@H](CCCNC(=N)N)NC(=O)[C@@H](NC(=O)[C@H](C)NC(=O)[C@H](CCC(=O)O)NC(=O)CNC(=O)[C@H](CCC(=O)O)NC(=O)[C@H](CC(C)C)NC(=O)[C@H](Cc1ccc(O)cc1)NC(=O)[C@H](CO)NC(=O)[C@H](CO)NC(=O)[C@@H](NC(=O)[C@H](CC(=O)O)NC(=O)[C@H](CO)NC(=O)[C@@H](NC(=O)[C@H](Cc1ccccc1)NC(=O)[C@@H](NC(=O)CNC(=O)[C@H](CCC(=O)O)NC(=O)C(C)(C)NC(=O)[C@@H](N)Cc1c[nH]cn1)[C@@H](C)O)[C@@H](C)O)C(C)C)C(C)C)C(=O)N[C@@H](C)C(=O)N[C@@H](Cc1c[nH]c2ccccc12)C(=O)N[C@@H](CC(C)C)C(=O)N[C@H](C(=O)N[C@@H](CCC(=O)O)C(=O)N[C@@H](CCCNC(=N)N)C(=O)N[C@H](C(=O)N[C@@H](CCCNC(=N)N)C(=O)N[C@@H](CCC(=O)O)C(=O)N[C@@H](Cc1ccccc1)C(=O)N[C@@H](CC(C)C)C(=O)N[C@@H](CCCCN)C(N)=O)C(C)C)C(C)C
# B2: [Aib8,Glu23,Val25,Glu34,Lys35,Aib36,Leu37]-GLP-1-(7-37)-peptidyl-Ser-Phe-Leu amide (peptide)
# peptide: H[Aib]EGTFTSDVSSYLEGEAVKEFIAWLVEK[Aib]LSFL-NH2
# modifications: N-terminus assumed
# SMILES: CC[C@H](C)[C@H](NC(=O)[C@H](Cc1ccccc1)NC(=O)[C@H](CCC(=O)O)NC(=O)[C@H](CCCCN)NC(=O)[C@@H](NC(=O)[C@H](C)NC(=O)[C@H](CCC(=O)O)NC(=O)CNC(=O)[C@H](CCC(=O)O)NC(=O)[C@H](CC(C)C)NC(=O)[C@H](Cc1ccc(O)cc1)NC(=O)[C@H](CO)NC(=O)[C@H](CO)NC(=O)[C@@H](NC(=O)[C@H](CC(=O)O)NC(=O)[C@H](CO)NC(=O)[C@@H](NC(=O)[C@H](Cc1ccccc1)NC(=O)[C@@H](NC(=O)CNC(=O)[C@H](CCC(=O)O)NC(=O)C(C)(C)NC(=O)[C@@H](N)Cc1c[nH]cn1)[C@@H](C)O)[C@@H](C)O)C(C)C)C(C)C)C(=O)N[C@@H](C)C(=O)N[C@@H](Cc1c[nH]c2ccccc12)C(=O)N[C@@H](CC(C)C)C(=O)N[C@H](C(=O)N[C@@H](CCC(=O)O)C(=O)N[C@@H](CCCCN)C(=O)NC(C)(C)C(=O)N[C@@H](CC(C)C)C(=O)N[C@@H](CO)C(=O)N[C@@H](Cc1ccccc1)C(=O)N[C@@H](CC(C)C)C(N)=O)C(C)C
# B3: [Aib8,Glu23,Val25,Leu33,Glu34,Lys35,Aib36,Lys37]-GLP-1-(7-37)-peptidyl-Glu-Trp-Leu amide (peptide)
# peptide: H[Aib]EGTFTSDVSSYLEGEAVKEFIAWLLEK[Aib]KEWL-NH2
# modifications: N-terminus assumed
# SMILES: CC[C@H](C)[C@H](NC(=O)[C@H](Cc1ccccc1)NC(=O)[C@H](CCC(=O)O)NC(=O)[C@H](CCCCN)NC(=O)[C@@H](NC(=O)[C@H](C)NC(=O)[C@H](CCC(=O)O)NC(=O)CNC(=O)[C@H](CCC(=O)O)NC(=O)[C@H](CC(C)C)NC(=O)[C@H](Cc1ccc(O)cc1)NC(=O)[C@H](CO)NC(=O)[C@H](CO)NC(=O)[C@@H](NC(=O)[C@H](CC(=O)O)NC(=O)[C@H](CO)NC(=O)[C@@H](NC(=O)[C@H](Cc1ccccc1)NC(=O)[C@@H](NC(=O)CNC(=O)[C@H](CCC(=O)O)NC(=O)C(C)(C)NC(=O)[C@@H](N)Cc1c[nH]cn1)[C@@H](C)O)[C@@H](C)O)C(C)C)C(C)C)C(=O)N[C@@H](C)C(=O)N[C@@H](Cc1c[nH]c2ccccc12)C(=O)N[C@@H](CC(C)C)C(=O)N[C@@H](CC(C)C)C(=O)N[C@@H](CCC(=O)O)C(=O)N[C@@H](CCCCN)C(=O)NC(C)(C)C(=O)N[C@@H](CCCCN)C(=O)N[C@@H](CCC(=O)O)C(=O)N[C@@H](Cc1c[nH]c2ccccc12)C(=O)N[C@@H](CC(C)C)C(N)=O
# B4: [Aib8,Glu23,Val25,Lys30,Glu34,Lys35,Aib36,Lys37]-GLP-1-(7-37)-peptidyl-Glu-Phe-Leu amide (peptide)
# peptide: H[Aib]EGTFTSDVSSYLEGEAVKEFIKWLVEK[Aib]KEFL-NH2
# modifications: N-terminus assumed
# SMILES: CC[C@H](C)[C@H](NC(=O)[C@H](Cc1ccccc1)NC(=O)[C@H](CCC(=O)O)NC(=O)[C@H](CCCCN)NC(=O)[C@@H](NC(=O)[C@H](C)NC(=O)[C@H](CCC(=O)O)NC(=O)CNC(=O)[C@H](CCC(=O)O)NC(=O)[C@H](CC(C)C)NC(=O)[C@H](Cc1ccc(O)cc1)NC(=O)[C@H](CO)NC(=O)[C@H](CO)NC(=O)[C@@H](NC(=O)[C@H](CC(=O)O)NC(=O)[C@H](CO)NC(=O)[C@@H](NC(=O)[C@H](Cc1ccccc1)NC(=O)[C@@H](NC(=O)CNC(=O)[C@H](CCC(=O)O)NC(=O)C(C)(C)NC(=O)[C@@H](N)Cc1c[nH]cn1)[C@@H](C)O)[C@@H](C)O)C(C)C)C(C)C)C(=O)N[C@@H](CCCCN)C(=O)N[C@@H](Cc1c[nH]c2ccccc12)C(=O)N[C@@H](CC(C)C)C(=O)N[C@H](C(=O)N[C@@H](CCC(=O)O)C(=O)N[C@@H](CCCCN)C(=O)NC(C)(C)C(=O)N[C@@H](CCCCN)C(=O)N[C@@H](CCC(=O)O)C(=O)N[C@@H](Cc1ccccc1)C(=O)N[C@@H](CC(C)C)C(N)=O)C(C)C
# B5: [Aib8,Glu23,Val25,Glu34,Lys35,Phe36,Lys37]-GLP-1-(7-37)-peptidyl-Glu-Phe-Phe amide (peptide)
# peptide: H[Aib]EGTFTSDVSSYLEGEAVKEFIAWLVEKFKEFF-NH2
# modifications: N-terminus assumed
# SMILES: CC[C@H](C)[C@H](NC(=O)[C@H](Cc1ccccc1)NC(=O)[C@H](CCC(=O)O)NC(=O)[C@H](CCCCN)NC(=O)[C@@H](NC(=O)[C@H](C)NC(=O)[C@H](CCC(=O)O)NC(=O)CNC(=O)[C@H](CCC(=O)O)NC(=O)[C@H](CC(C)C)NC(=O)[C@H](Cc1ccc(O)cc1)NC(=O)[C@H](CO)NC(=O)[C@H](CO)NC(=O)[C@@H](NC(=O)[C@H](CC(=O)O)NC(=O)[C@H](CO)NC(=O)[C@@H](NC(=O)[C@H](Cc1ccccc1)NC(=O)[C@@H](NC(=O)CNC(=O)[C@H](CCC(=O)O)NC(=O)C(C)(C)NC(=O)[C@@H](N)Cc1c[nH]cn1)[C@@H](C)O)[C@@H](C)O)C(C)C)C(C)C)C(=O)N[C@@H](C)C(=O)N[C@@H](Cc1c[nH]c2ccccc12)C(=O)N[C@@H](CC(C)C)C(=O)N[C@H](C(=O)N[C@@H](CCC(=O)O)C(=O)N[C@@H](CCCCN)C(=O)N[C@@H](Cc1ccccc1)C(=O)N[C@@H](CCCCN)C(=O)N[C@@H](CCC(=O)O)C(=O)N[C@@H](Cc1ccccc1)C(=O)N[C@@H](Cc1ccccc1)C(N)=O)C(C)C
# B6: [Aib8,Lys23,Val25,Glu34,Lys35,Aib36,Lys37]-GLP-1-(7-37)-peptidyl-Glu-Phe-Leu amide (peptide)
# peptide: H[Aib]EGTFTSDVSSYLEGKAVKEFIAWLVEK[Aib]KEFL-NH2
# modifications: N-terminus assumed
# SMILES: CC[C@H](C)[C@H](NC(=O)[C@H](Cc1ccccc1)NC(=O)[C@H](CCC(=O)O)NC(=O)[C@H](CCCCN)NC(=O)[C@@H](NC(=O)[C@H](C)NC(=O)[C@H](CCCCN)NC(=O)CNC(=O)[C@H](CCC(=O)O)NC(=O)[C@H](CC(C)C)NC(=O)[C@H](Cc1ccc(O)cc1)NC(=O)[C@H](CO)NC(=O)[C@H](CO)NC(=O)[C@@H](NC(=O)[C@H](CC(=O)O)NC(=O)[C@H](CO)NC(=O)[C@@H](NC(=O)[C@H](Cc1ccccc1)NC(=O)[C@@H](NC(=O)CNC(=O)[C@H](CCC(=O)O)NC(=O)C(C)(C)NC(=O)[C@@H](N)Cc1c[nH]cn1)[C@@H](C)O)[C@@H](C)O)C(C)C)C(C)C)C(=O)N[C@@H](C)C(=O)N[C@@H](Cc1c[nH]c2ccccc12)C(=O)N[C@@H](CC(C)C)C(=O)N[C@H](C(=O)N[C@@H](CCC(=O)O)C(=O)N[C@@H](CCCCN)C(=O)NC(C)(C)C(=O)N[C@@H](CCCCN)C(=O)N[C@@H](CCC(=O)O)C(=O)N[C@@H](Cc1ccccc1)C(=O)N[C@@H](CC(C)C)C(N)=O)C(C)C
# B7: [Gly8,Glu23,Val25,Glu34,Lys35,Val36,Lys37]-GLP-1-(7-37)-peptidyl-Glu-Phe-Leu-Gly (peptide)
# peptide: HGEGTFTSDVSSYLEGEAVKEFIAWLVEKVKEFLG
# B8: [Aib8,Glu23,Val25,Gln30,His31,Glu34,Lys35,Leu36,Lys37]-GLP-1-(7-37)-peptidyl-Glu-Phe-Leu amide (peptide)
# peptide: H[Aib]EGTFTSDVSSYLEGEAVKEFIQHLVEKLKEFL-NH2
# modifications: N-terminus assumed
# SMILES: CC[C@H](C)[C@H](NC(=O)[C@H](Cc1ccccc1)NC(=O)[C@H](CCC(=O)O)NC(=O)[C@H](CCCCN)NC(=O)[C@@H](NC(=O)[C@H](C)NC(=O)[C@H](CCC(=O)O)NC(=O)CNC(=O)[C@H](CCC(=O)O)NC(=O)[C@H](CC(C)C)NC(=O)[C@H](Cc1ccc(O)cc1)NC(=O)[C@H](CO)NC(=O)[C@H](CO)NC(=O)[C@@H](NC(=O)[C@H](CC(=O)O)NC(=O)[C@H](CO)NC(=O)[C@@H](NC(=O)[C@H](Cc1ccccc1)NC(=O)[C@@H](NC(=O)CNC(=O)[C@H](CCC(=O)O)NC(=O)C(C)(C)NC(=O)[C@@H](N)Cc1c[nH]cn1)[C@@H](C)O)[C@@H](C)O)C(C)C)C(C)C)C(=O)N[C@@H](CCC(N)=O)C(=O)N[C@@H](Cc1c[nH]cn1)C(=O)N[C@@H](CC(C)C)C(=O)N[C@H](C(=O)N[C@@H](CCC(=O)O)C(=O)N[C@@H](CCCCN)C(=O)N[C@@H](CC(C)C)C(=O)N[C@@H](CCCCN)C(=O)N[C@@H](CCC(=O)O)C(=O)N[C@@H](Cc1ccccc1)C(=O)N[C@@H](CC(C)C)C(N)=O)C(C)C
# B9: [Aib8,Glu23,Val25,Glu34,Lys35,Val36,Lys37]-GLP-1-(7-37)-peptidyl-Glu-Phe-Leu amide (peptide)
# peptide: H[Aib]EGTFTSDVSSYLEGEAVKEFIAWLVEKVKEFL-NH2
# modifications: N-terminus assumed
# SMILES: CC[C@H](C)[C@H](NC(=O)[C@H](Cc1ccccc1)NC(=O)[C@H](CCC(=O)O)NC(=O)[C@H](CCCCN)NC(=O)[C@@H](NC(=O)[C@H](C)NC(=O)[C@H](CCC(=O)O)NC(=O)CNC(=O)[C@H](CCC(=O)O)NC(=O)[C@H](CC(C)C)NC(=O)[C@H](Cc1ccc(O)cc1)NC(=O)[C@H](CO)NC(=O)[C@H](CO)NC(=O)[C@@H](NC(=O)[C@H](CC(=O)O)NC(=O)[C@H](CO)NC(=O)[C@@H](NC(=O)[C@H](Cc1ccccc1)NC(=O)[C@@H](NC(=O)CNC(=O)[C@H](CCC(=O)O)NC(=O)C(C)(C)NC(=O)[C@@H](N)Cc1c[nH]cn1)[C@@H](C)O)[C@@H](C)O)C(C)C)C(C)C)C(=O)N[C@@H](C)C(=O)N[C@@H](Cc1c[nH]c2ccccc12)C(=O)N[C@@H](CC(C)C)C(=O)N[C@H](C(=O)N[C@@H](CCC(=O)O)C(=O)N[C@@H](CCCCN)C(=O)N[C@H](C(=O)N[C@@H](CCCCN)C(=O)N[C@@H](CCC(=O)O)C(=O)N[C@@H](Cc1ccccc1)C(=O)N[C@@H](CC(C)C)C(N)=O)C(C)C)C(C)C
# Molecular target: human GLP-1 receptor (human, UniProt P43220)
# Assay: cell-based or functional assay
Binder,"CRE luciferase EC50, 0% HSA","CRE luciferase EC50, 1% HSA"
B1,0.433 nM,0.118 nM
B2,0.872 nM,0.368 nM
B3,0.659 nM,0.32 nM
B4,0.103 nM,0.043 nM
B5,1.22 nM,0.431 nM
B6,0.311 nM,0.173 nM
B7,0.464 nM,0.122 nM
B8,0.077 nM,0.025 nM
B9,0.474 nM,0.381 nM
